Assay results taken from patent US20080254024A1 (Genentech, published 2008).
One block for each binder: values may come before it.

Tests used:
[1] = target: T1, NH2-terminal GD epitope-tagged human EphB2 overexpressed on cells (HT1080-EphB2, SVT2-EphB2) (human, UniProt P29323 19-1055); test: cell-based or functional assay
T1 sequence (looked up): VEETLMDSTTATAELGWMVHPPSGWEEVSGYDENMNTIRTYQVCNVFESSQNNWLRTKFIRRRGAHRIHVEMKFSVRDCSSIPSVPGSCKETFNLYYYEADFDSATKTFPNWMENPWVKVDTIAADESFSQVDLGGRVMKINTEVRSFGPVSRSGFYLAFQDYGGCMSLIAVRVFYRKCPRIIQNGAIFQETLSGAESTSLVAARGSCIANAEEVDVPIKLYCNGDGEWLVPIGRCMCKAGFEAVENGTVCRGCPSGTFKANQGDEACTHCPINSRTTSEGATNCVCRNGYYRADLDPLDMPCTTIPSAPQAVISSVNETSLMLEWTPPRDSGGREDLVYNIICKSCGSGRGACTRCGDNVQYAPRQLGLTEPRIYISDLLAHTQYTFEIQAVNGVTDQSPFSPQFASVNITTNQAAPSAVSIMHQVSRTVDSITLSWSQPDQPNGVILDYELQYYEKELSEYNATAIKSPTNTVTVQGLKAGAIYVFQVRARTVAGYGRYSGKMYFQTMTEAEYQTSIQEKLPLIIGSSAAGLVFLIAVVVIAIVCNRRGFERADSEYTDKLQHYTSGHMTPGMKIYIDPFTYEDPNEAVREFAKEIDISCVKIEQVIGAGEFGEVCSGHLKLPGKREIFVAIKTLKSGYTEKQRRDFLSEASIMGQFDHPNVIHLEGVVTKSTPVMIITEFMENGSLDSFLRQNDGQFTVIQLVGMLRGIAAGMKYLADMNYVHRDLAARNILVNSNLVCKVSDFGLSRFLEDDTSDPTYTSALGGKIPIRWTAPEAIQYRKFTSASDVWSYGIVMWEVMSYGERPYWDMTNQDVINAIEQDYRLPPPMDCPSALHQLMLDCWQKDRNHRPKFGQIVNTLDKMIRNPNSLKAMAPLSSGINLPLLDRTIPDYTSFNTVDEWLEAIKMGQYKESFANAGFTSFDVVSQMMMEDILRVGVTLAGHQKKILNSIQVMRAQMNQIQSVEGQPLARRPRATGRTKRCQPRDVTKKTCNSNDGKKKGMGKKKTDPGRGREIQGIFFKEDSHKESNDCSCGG

[2] = target: T1, NH2-terminal GD epitope-tagged human …; test: Scatchard analysis, 125I-labeled MAb 2H9 with unlabeled MAb 2H9 on HT1080-EphB2 cells, on ice
[3] = target: T2, polyhis-tagged human EphB2 (baculovirus-derived His8-tagged EphB2 receptor) (human, UniProt P29323 19-543); test: SPR (BIAcore 3000), antibody immobilized on CM5 chip, polyhis-tagged EphB2 injected, 1:1 model
T2 construct: extracellular domain; also called polyhis tagged EphB2; purified EphB2 immunogen; not shown: His8 tag
T2 sequence (looked up): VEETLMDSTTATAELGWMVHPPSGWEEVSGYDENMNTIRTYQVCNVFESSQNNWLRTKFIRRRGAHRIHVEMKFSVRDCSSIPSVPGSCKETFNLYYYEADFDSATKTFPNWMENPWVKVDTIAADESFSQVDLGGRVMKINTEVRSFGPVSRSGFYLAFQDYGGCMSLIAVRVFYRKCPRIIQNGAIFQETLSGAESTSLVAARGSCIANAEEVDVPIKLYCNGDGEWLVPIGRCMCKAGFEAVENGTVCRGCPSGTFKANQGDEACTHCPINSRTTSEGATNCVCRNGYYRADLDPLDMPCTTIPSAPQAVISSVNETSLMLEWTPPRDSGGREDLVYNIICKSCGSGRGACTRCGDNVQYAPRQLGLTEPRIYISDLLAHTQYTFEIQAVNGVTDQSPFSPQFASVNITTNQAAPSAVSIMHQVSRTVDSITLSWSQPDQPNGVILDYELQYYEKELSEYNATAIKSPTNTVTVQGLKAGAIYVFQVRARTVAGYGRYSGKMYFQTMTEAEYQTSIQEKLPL
Experimental: Binding affinity of Mab 2H9 was determined by surface plasmon resonance using Pharmacia BIAcore® 3000 (BIAcore AB, Uppsala, Sweden) at room temperature (see, e.g., Morton et al. (1998) Methods in Enzymology, 295, 268-294). Anti-EphB2 antibodies were immobilized to the sensor chip (CM5) through primary amine groups. The carboxymethylated sensor chip surface matrix was activated by injecting 20 μl of a mixture of 0.025 M N-hydroxysuccinimide and 0.1 M N-ethyl-N′(dimethylaminopropyl) carbodiimide at 5 μl/min. 5-10 μl of 10 μg/ml solution of anti-EphB2 antibodies in 10 mM sodium acetate, pH 4.5, were injected at 5 μl/min. After coupling, unoccupied sites on the chip were blocked by injecting 20 μl of 1M ethanolamine, pH 8.5. The running buffer was PBS containing 0.05% polysorbate 20. For kinetic measurements, two-fold serial dilutions of polyhis-tagged EphB2 in running buffer were injected over the flow cells for 3 minutes at a flow rate of 30 μl/min and the bound polyhis tagged EphB2 was allow to dissociate for 20 minutes. The binding surface was regenerated by injecting 20 μl of 10 mM glycine-HCl (pH 1.5). […] There was no significant non-specific binding of polyhis tagged EphB2 to flow cell one. For calculate apparent binding affinity, data were analyzed using a 1:1 binding model using global fitting. The association and dissociation rate constants were fitted simultaneously (BIAevaluation software).

[4] = target: T3, endogenous human EphB2 on cells or tissue (HT1080-GD vector control cells, colorectal cancer cell lines, … (human, UniProt P29323 19-1055)); test: saturation binding on HT1080-GD cells, HRP-conjugated secondary antibody, absorbance at 450 nm
T3 construct: whole, on cells; also called vector control HT1080 cell line
T3 sequence (looked up): T1 sequence (looked up)

[5] = target: T3, endogenous human EphB2 on cells or …; test: Scatchard analysis of 125I-labelled MAb 2H9 competed with unlabelled MAb 2H9 on HT1080-GD cells
[6] = target: T1, NH2-terminal GD epitope-tagged human …; test: saturation binding on HT1080-EphB2 cells, HRP-conjugated secondary antibody, absorbance at 450 nm
[7] = target: T1, NH2-terminal GD epitope-tagged human …; test: Scatchard analysis of 125I-labelled MAb 2H9 competed with unlabelled MAb 2H9 on HT1080-EphB2 cells
[8] = target: T3, endogenous human EphB2 on cells or …; test: Scatchard analysis, 125I-labeled MAb 2H9 with unlabeled MAb 2H9 on HT1080-GD cells, on ice; HT1080-GD cells, Scatchard analysis

- internalization of 125I-labeled MAb 2H9 by HT1080-EphB2 cells after shift to 37° C. for 1 hour [1]: ~2 fold
- Kd [2]: ~4 nM
- Kd [3]: 0.12 nM
- koff [3]: 1.03e-05 s⁻¹
- kon [3]: 82800 M⁻¹ s⁻¹
- EC50 (read off the curve) [4]: ~0.02 µg/mL
- Kd [5]: 4.4 nM
- EC50 (read off the curve) [6]: ~0.02 µg/mL
- Kd [7]: 4.1 nM
- Kd [8]: ~4 nM
B1: anti-EphB2 monoclonal antibody produced by hybridoma cell line 2H9.11.14 (ATCC PTA-6606) (antibody, IgG1, V domains shown)
VH: QVQLQQSGAELAKPGASVKMSCKASGYTFTSYWMHWVKQRPGQGLEWIGFINPSTGYTDYNQKFKDKATLTVKSSNTAYMQLSRLTSEDSAVYYCTRRLKLLRYAMDYWGQGTTLTVSA
VL: DIVMTQSPSSLSVSAGEKVTMNCKSSQSLLNSGNQENYLAWYQQKPGQPPKLLIYGASTRESGVPDRFTGSGSGTDFTLTISSVQAEDLAVYYCQNDHSYPFTFGAGTKVEIKR
notes: 125I-labelled in the Scatchard and uptake assays; also called Mab 2H9; MAb 2H9

- EC50 (read off the curve) [6]: ~0.02 µg/mL
B2: immunoconjugate 2H9-MC-vc-PAB-MMAE (antibody, mouse IgG1, V domains shown)
VH: B1 VH
VL: B1 VL
modifications: MC-vc-PAB-MMAE drug-linker covalently coupled to the antibody; sites and chain not stated
notes: also called MMAE-vc-2H9; 2H9-vc-MMAE
- antibody concentration required for half-maximal cell killing (IC50), Cell Titer-Glo viability after 48 h [1]: 6 ng/mL
